# Results from paper doi:10.1101/2024.05.02.592261.
# Values joined by “and” are separate entries in the source; they are usually repeats but may differ in a detail not shown here. Identical values can stand only once.
# Molecular target: His-EutM (UniProt P41791)
# Assay: pull-down
# Sequence of UniProt P41791 (P41791 whole entry): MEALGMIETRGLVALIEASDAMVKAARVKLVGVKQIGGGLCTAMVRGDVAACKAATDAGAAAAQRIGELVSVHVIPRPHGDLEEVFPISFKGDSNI
row,Substance,molar ratio of His-EutM to dual-modified EutM in the purified hybrid scaffold
1,SpyC-EutM-SnoopC,3.9 :1 and 8.8 :1
2,SnoopT-EutM-SpyT,3.3 :1 and 7.6 :1
